Test results as given in paper PMC8610991, “The encapsulin from Thermotoga maritima is a flavoprotein with a symmetry matched ferritin-like cargo protein” (Scientific Reports, 2021).
Where “and” joins values, the source holds several entries; their conditions need not be identical. Equal values may be shown once. Blank lines part the entries; values can stand above or below the molecule they belong to.

Tests used:
T. maritima encapsulin [1] = target: T1, T. maritima encapsulin (Thermotoga maritima, UniProt Q9WZP2); assay: cryo-EM structure […] A; absorbance, LC-MS of released flavin; assay type: binding; conditions: co-purified flavin; pi-stacking with W90 between two shell subunits; fluorescence quenched until denatured
T1 construct: gene enc; encapsulin shell, codon-optimised gene in pET14, E. coli BL21(DE3), co-expressed with His6-tagged FLP cargo (sub-stoichiometric loading); T = 1 icosahedral shell of 12 pentamers; flavin site between two shell subunits; with Encapsulated ferritin-like protein (FLP cargo)

T. maritima encapsulin [2] = target: T1, T. maritima encapsulin; assay: LC-MS of flavin released from purified encapsulin; assay type: binding; conditions: co-purified minor species; exact flavin composition not determined
[3] = target: Thermotoga maritima encapsulin shell protein (Thermotoga maritima) (UniProt Q9WZP2); assay: cryo-EM structure; FLP-loaded encapsulin, co-expressed in E. coli and purified as a complex; 2 mg/mL, 0.05% NP-40; 2D classes, I1 reconstruction of the shell (3.3 Å), C1 reconstruction, symmetry expansion and focused classification of the FLP at a pentameric vertex (shell ~3.5 Å, FLP ~7 Å)
[4] = target: the molecule itself; assay: as above

T1 sequence (Q9WZP2 whole entry): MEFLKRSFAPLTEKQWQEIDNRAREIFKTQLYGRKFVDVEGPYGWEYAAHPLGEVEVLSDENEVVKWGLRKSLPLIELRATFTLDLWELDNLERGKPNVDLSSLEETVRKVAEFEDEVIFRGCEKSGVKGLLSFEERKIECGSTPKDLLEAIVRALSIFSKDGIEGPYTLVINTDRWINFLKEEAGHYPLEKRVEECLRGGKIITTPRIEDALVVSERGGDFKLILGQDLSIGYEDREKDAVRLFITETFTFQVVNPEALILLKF

Molecule: Cc1cc2nc3c(=O)[nH]c(=O)nc-3n(C[C@H](O)[C@H](O)[C@H](O)COP(=O)(O)O)c2cc1C [FMN, flavin mononucleotide]
cryo-EM structure 3.3 A; absorbance, LC-MS of released flavin (T. maritima encapsulin [1]): additional density near W90 that corresponds to a flavin undergoing π–stacking with the tryptophan

Molecule: Cc1cc2nc3c(=O)[nH]c(=O)nc-3n(C[C@H](O)[C@H](O)[C@H](O)CO)c2cc1C [riboflavin]
LC-MS of flavin released from purified encapsulin (T. maritima encapsulin [2]): Both FMN and riboflavin were present as the major and minor peaks respectively

stoichiometry N [3]: 3 FLPs/shell and 5 FLPs/shell and 4 FLPs/shell
stoichiometry N (FLPs per encapsulin) [3]: 2
B1: Thermotoga maritima ferritin-like protein (FLP) cargo (natural protein, UniProt Q9WZP3 1-114, looked up)
chain: MADQYHEPVSELTGKDRDFVRALNSLKEEIEAVAWYHQRVVTTKDETVRKILEHNRDEEMEHAAMLLEWLRRNMPGWDEALRTYLFTDKPITEIEEETSGGSENTGGDLGIRKL
notes: ferritin-like protein, native cargo of the Thermotoga maritima encapsulin; Decamer with fivefold symmetry; The map of the cargo (EMD-24002) has no atomic model of its own; a homologous FLP crystal structure (PDB 5DA5) was docked as a rigid body; also called cargo protein; ferritin-like cargo protein; copies: 10
stoichiometry N [4]: 10
